The target in test [1] is T1, TLR4 (Homo sapiens, UniProt O00206).
T1 construct: endogenous in cells; host or cells: freshly isolated human monocytes; human monocyte-derived DC
Kind of test: FRET with TLR4 on MonoMac 6 cells. It counts as binding. Here is the method:
(§1) Cell labeling for FRET. MonoMac 6 cells (a human monocytic cell line) were labeled with 100 μl of a mixture of donor conjugated antibody (Cy3) and acceptor conjugated antibody (Cy5). For labelling of Cpn10, an anti-Cpn10 rabbit polyclonal antibody was used. […] The cells were fixed in order to prevent potential re-organisation of the proteins during the course of the experiment. Confocal imaging. Cells were imaged on a Carl Zeiss, Inc. LSM510 confocal microscope (with an Axiovert 200 fluorescent microscope) using a 1.4 NA 63× Zeiss objective. The images were analysed using LSM 2.5 image analysis software (Carl Zeiss, Inc.). Cy3 and Cy5 were detected using the appropriate filter sets. Using typical exposure times for image acquisition (less than 5 s), no fluorescence was observed from a Cy3-labelled specimen using the Cy5 filters, nor was Cy5 fluorescence detected using the Cy3 filter sets. FRET measurements. […] In the present study, FRET was measured using a method as previously described (Kenworthy and […] (1998) Journal of Cell Biology 142: 69-84; Kenworthy and […] (1998) in Gelb, M. H. (Ed.) Methods in molecular Biology. Humana Press Inc, Totowa, N.J. pp 37-49). Briefly, samples were labeled with donor and acceptor conjugated antibodies, and energy transfer was detected as an increase in donor fluorescence (dequenching) after complete photobleaching of the acceptor molecule. […]

The target in test [2] is T2, CD14 (Homo sapiens, UniProt P08571).
T2 construct: MonoMac 6 cells (a human monocytic cell line); endogenous in cells; host or cells: MonoMac 6
T2 sequence (P08571 20-345): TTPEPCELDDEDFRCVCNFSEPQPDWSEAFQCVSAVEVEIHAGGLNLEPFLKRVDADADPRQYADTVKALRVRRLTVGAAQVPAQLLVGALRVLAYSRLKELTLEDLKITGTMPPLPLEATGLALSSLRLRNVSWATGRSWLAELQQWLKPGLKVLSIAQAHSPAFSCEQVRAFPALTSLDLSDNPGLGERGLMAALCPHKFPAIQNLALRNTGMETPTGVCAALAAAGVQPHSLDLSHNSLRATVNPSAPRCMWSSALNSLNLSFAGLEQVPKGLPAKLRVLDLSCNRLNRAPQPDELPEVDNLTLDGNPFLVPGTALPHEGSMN
The test is described as follows: FRET with CD14 on MonoMac 6 cells. It counts as binding. Here is the method:
as §1

In test [3] the test system is GM1. The test is described as follows: FRET with GM1 (lipid rafts) on MonoMac 6 cells. Format: binding, human. The following applies: donor GM1. Here is the method: Cell labeling for FRET. MonoMac 6 cells (a human monocytic cell line) were labeled with 100 μl of a mixture of donor conjugated antibody (Cy3) and acceptor conjugated antibody (Cy5). For labelling of Cpn10, an anti-Cpn10 rabbit polyclonal antibody was used. The cells were rinsed twice in PBS/0.02% BSA, prior to fixation with 4% formaldehyde for 15 min. The cells were fixed in order to prevent potential re-organisation of the proteins during the course of the experiment. Confocal imaging. Cells were imaged on a Carl Zeiss, Inc. LSM510 confocal microscope (with an Axiovert 200 fluorescent microscope) using a 1.4 NA 63× Zeiss objective. The images were analysed using LSM 2.5 image analysis software (Carl Zeiss, Inc.). Cy3 and Cy5 were detected using the appropriate filter sets. Using typical exposure times for image acquisition (less than 5 s), no fluorescence was observed from a Cy3-labelled specimen using the Cy5 filters, nor was Cy5 fluorescence detected using the Cy3 filter sets. FRET measurements. FRET is a non-invasive imaging technique used to determine molecular proximity. […]
In the present study, FRET was measured using a method as previously described (Kenworthy and Edidin (1998) Journal of Cell Biology 142: 69-84; Kenworthy and Edidin (1998) in Gelb, M. H. (Ed.) Methods in molecular Biology. Humana Press Inc, Totowa, N.J. pp 37-49). […]

For test [4], the system named is Cpn10 promoter. The test is described as follows: Cpn10 promoter luciferase reporter (pCAT/LUC-CPN) in RAW264.7 cells. It counts as cell-based, mouse. The following applies: optimal agonist concentrations (FIG. 18H): IFNγ 1 ng/ml, IL-1β 1 ng/ml, TNF-α 100 ng/ml. An excerpt:
Reagents. Recombinant human Cpn10 was produced to GMP specifications by BresaGen Limited (Adelaide, Aus) essentially as described previously (Johnson, B. 2005. J. Biol Chem 280:4037-4047). […] For FACS analysis, a cysteine residue was engineered onto the C-terminus of Cpn10 and labeled with AlexFluor647 (Invitrogen) according to manufacturer's instructions. […] TLR ligands and cytokines included: E. coli LPS (strain 055:B5, Sigma), E. coli ultra-pure LPS (0111:B4 Sigma), S. aureus LTA, B. subtilis LTA, S. aureus PGN, B. subtilis PGN, zymosan cell wall from S. cerevisae, poly(I:C), imiquimod R837, CpG ODN 1826 and ODN2216, GpC ODN1826 control, (all from Invivogen, San Diego, Calif.), recombinant mouse IFNγ, (Chemicon), IL-1β (PeproTech), and recombinant human TNF-α (Invivogen). Antibodies. Rabbit polyclonal antibodies were raised against Cpn10 and affinity purified at CBio. […] After 24 h cells were harvested and cell viability assessed by trypan blue dye exclusion. […] Cells were washed, harvested in Cell Culture Lysis Reagent (CCLR, Promega) and firefly luciferase signal measured using the Luciferase Assay System (Promega) and the Wallac Victor 2 Multilabel Counter (Perkin-Elmer). […] Cells were assessed for viability, pooled per condition (n=4), pelleted by centrifugation and resuspended in CCLR.
(In general: Reporter assays use an easily measured gene product as a stand-in for the process of interest.)

T1 sequence (O00206 24-839): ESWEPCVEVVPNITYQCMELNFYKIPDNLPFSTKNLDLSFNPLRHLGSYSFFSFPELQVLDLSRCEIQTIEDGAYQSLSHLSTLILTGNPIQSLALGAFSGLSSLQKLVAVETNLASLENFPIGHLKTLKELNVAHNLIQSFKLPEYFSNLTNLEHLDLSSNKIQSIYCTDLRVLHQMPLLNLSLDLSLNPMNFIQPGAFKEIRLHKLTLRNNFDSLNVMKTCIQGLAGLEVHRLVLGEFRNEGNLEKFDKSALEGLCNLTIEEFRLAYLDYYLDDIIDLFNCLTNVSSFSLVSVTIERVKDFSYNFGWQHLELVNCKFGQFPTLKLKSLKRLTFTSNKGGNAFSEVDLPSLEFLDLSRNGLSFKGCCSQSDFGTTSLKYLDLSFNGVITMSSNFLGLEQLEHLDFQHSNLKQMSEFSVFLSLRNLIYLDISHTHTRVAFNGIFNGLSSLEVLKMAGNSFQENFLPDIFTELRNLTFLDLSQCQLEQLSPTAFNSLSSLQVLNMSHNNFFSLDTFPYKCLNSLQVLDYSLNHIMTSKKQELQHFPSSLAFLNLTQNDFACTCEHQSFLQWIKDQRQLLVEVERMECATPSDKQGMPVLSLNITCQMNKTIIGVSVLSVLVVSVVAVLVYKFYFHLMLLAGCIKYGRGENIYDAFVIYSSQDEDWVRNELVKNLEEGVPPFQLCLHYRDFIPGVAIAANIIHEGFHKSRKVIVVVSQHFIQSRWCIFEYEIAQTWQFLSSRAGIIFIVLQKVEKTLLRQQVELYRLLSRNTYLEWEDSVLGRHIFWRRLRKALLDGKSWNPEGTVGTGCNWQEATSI

B1: Hsp60: chaperonin 60, protein folding partner of Cpn10 (protein)
chain: AKDVKFGADARALMLQGVDLLADAVAVTMGPKGRTVIIEQSWGSPKVTKDGVTVAKSIDLKDKYKNIGAKLVQDVANNTNEEAGDGTTTATVLARSIAKEGFEKISKGANPVEIRRGVMLAVDAVIAELKKQSKPVTTPEEIAQVATISANGDKEIGNIISDAMKKVGRKGVITVKDGKTLNDELEIIEGMKFDRGYISPYFINTSKGQKCEFQDAYVLLSEKKISSIQSIVPALEIANAHRKPLVIIAEDVDGEALSTLVLNRLKVGLQVVAVKAPGFGDNRKNQLKDMAIATGGAVFGEEGLTLNLEDVQPHDLGKVGEVIVTKDDAMLLKGKGDKAQIEKRIQEIIEQLDVTTSEYEKEKLNERLAKLSDGVAVLKVGGTSDVEVNEKKDRVTDALNATRAAVEEGIVLGGGCALLRCIPALDSLTPANEDQKIGIEIIKRTLKIPAMTIAKNAGVEGSLIVEKIMQSSSEVGYDAMAGDFVNMVEKGIIDPTKVVRTALLDAAGVASLLTTAEVVVTEIPKEEKDPGMGAMGGMGGGMGGGMF
Consider B1, for which the “E ± ΔE (%) energy transfer efficiency” value was determined as 6 ± 1.0% in test [1] (MM6 cells stimulated with LPS); 5 ± 1.0% in test [1] (Unstimulated MM6 cells); 4 ± 2.0% in test [2] (MM6 cells stimulated with LPS); 6 ± 0.5% in test [2] (Unstimulated MM6 cells); 8 ± 2.0% in test [3] (MM6 cells stimulated with LPS); 6 ± 0.5% in test [3] (Unstimulated MM6 cells).

B2: IFNγ: recombinant mouse IFNγ (Chemicon), non-TLR agonist (protein, UniProt P01580 23-155, looked up)
Interferon gamma: HGTVIESLESLNNYFNSSGIDVEEKSLFLDIWRNWQKDGDMKILQSQIISFYLRLFEVLKDNQAISNNISVIESHLITTFFSNSKAKKDAFMSIAKFEVNNPQVQRQAFNELIRVVHQLLPESSLRKRKRSRC
For B2, the “up-regulation of the Cpn10 promoter” value in test [4] is “did not induce substantial up-regulation”.

For the origin of these results see patent US9457062B2, “Chaperonin 10-induced immunomodulation” (CBIO LIMITED, priority 2005, dated 2016).
